{
  "source": "patent US20240218057A1",
  "about": "(ROCKEFELLER UNIVERSITY, published 2024)",
  "data": [
    {"target": "T1, SARS-COV-2 RBD (SARS-COV-2, UniProt P0DTC2 319-539)", "T1 construct": "also called WT RBD", "experiment": "ELISA, RBD coated on plate", "units": {"EC50": "ng/mL"}, "values": [
      {"binder": "C1058 (antibody, V domains shown) VH: EVQLVESGGGLVQPGGSLRLSCAASGIIVSSNYMNWVRQVPGKGLEWVSVLYSGGSTFYADSVRGRFTISRDNSKNTLFLQMNSLRPEDTAVYYCARDFREGAFDIWGQGTMVTV VL: DIQLTQSPSFLSASVGDRVTITCRASQGISSYLAWYQQKPGKAPNLLIYAASTLQSGVPSRFSGSGSGTDFTLTISSLQPEDFATYYCQQLNSYSPLFGQGTRLEIK", "EC50": 2.13},
      {"binder": "C1059 (antibody, V domains shown) VH: EVQLVESGGGLVQPGGSLRLSCAASGVTVSYNYMHWVRQAPGKGLEWVSVFFPGGSIFYADSVKGRFSISRDNSHNTLYLQMNNLRPEDTAVYYCARDFREGAIDLWGQGTMVTVSS VL: DIQLTQSPSFLSASVEDRVTITCRASQGISSYLAWYQQKPGKAPKLLIYGASTLQSGVPSRFSGSGSGTEFTLTISSLQPEDSATYYCQQLNSYPPLFGQGTRLEIK", "EC50": 1.69},
      {"binder": "C1067 (antibody, V domains shown) VH: QVQLVQSGAEVKKPGASVKVSCKASRDTFTTHYIHWVRQAPGQGLEWMGIINPSGGSISYAQKFQGRVTMTRDTSTSTVYMELSSLRSEDTAVYYCARGGIVPHLSNWFDPWGQGTLVTVSS VL: EIVLTQSPGTLSLSPGERATLSCRASQSVSSSYLAWYQQKPGQAPRLLIYGASSRATGIPDRFTGSGSGTDFTLTISRLEPEDFAVYYCQQYGRSSGFTFGPGTKVDIK", "EC50": 2.93},
      {"binder": "C1057 (antibody, V domains shown) VH: QVQLVQSGAEVKKPGSSVKVSCKASGGTFTTYIISWVRQAPGQGLEWMGGISPMLGTANYAQKFQGGVTITADESTTTAYMEMSGLRSEDTAVYYCARAHMYCSDGSCYRQSGYFDSWGQGTLVTVSS VL: QSALTQPRSVSGSPGQSVTITCTGTSSNVGGYKYVSWFQQHPGKAPKFLIYDVSERSSGVPDRFSGSKSGNTASLTISGLQAEDEADYYCCSYAGKYTVVFGGGTRLTV", "EC50": 2.12},
      {"binder": "C1066 (antibody, V domains shown) VH: EVQLVESGGGLVQPGRSLRLSCAASGFMFDDYAMHWVRQAPGKGLEWVSGINWSSADIGYVDSVKGRFTISRDNAKNSLYLQMNSLRTEDTAFYYCAKGWFGELLGGSDSWGQGTLVTVSS VL: QLVLTQSSSASASLGSSVKLTCTLNSGHSSYIIAWHQQQPGKAPRYLMKLEGSGSYNKGSGVPDRFSGSSSGADRYLTISNLQFEDEADYYCATWDSNTQVFGGGTKLTVL", "EC50": 3.01},
      {"binder": "C1063 (antibody, V domains shown) VH: EVQLVQSGAEVKKPGESLKISCKGYGNSFNNYWIAWVRQMPVKGLEWMGVINPGDSDTRYSPSFQGQVTISVDKSISTAYLQWSSLKASDTAMYYCARTWSPAAVAFFDSWGQGTLVTVS VL: NFMLTQPHSVSESPGKTVTISCTRSSDSIGSNYVQWYQQRPGSSPTIVIYEDSQRPSGVPHRFSGSFDSSSNSASLTISGLKTEDEADYYCQSWDSGNLVFGGGTKLTVL", "EC50": 3.04},
      {"binder": "C1068 (antibody, V domains shown) VH: QVQLVESGGGVVQPGRSLRLSCAASGFTFSTFAMHWVRQAPGKGLEWVAVTSYDGSNKYYADSVKGRFTISRDNSKNTLYLQMNSLRAEDTAVYYCARGLLWFGESEYFQHWGQGTLVTVSS VL: not shown", "EC50": 2.48},
      {"binder": "C1053 (antibody, V domains shown) VH: EVQLLESGGGLVQPGGSLRLSCAASGFTFSSYAMNWVRQAPGKGLEWVSAISGSGGGTYYADSVKGRFTISRDNSKNTLYLQMDSLRAEDTAVYYCAKDVPIEQQLVPTFDYWGQGALVTVSS VL: DIQMTQSPSSLSASVGDRVTITCRASQSISRYLNWYQQKPGKAPKLLIYGASSLQSGVPSRFSGSGSGTDFTLTISSLQPEDFATYWCQQSYSTLSITFGQGTRLEIK", "note": "[C1053, listing 1 of 2 here]", "EC50": 4.13},
      {"binder": "C1061 (antibody, V domains shown) VH: EVQLVESGGGLVQPGGSLRLSCAASGFTFSRYDMHWVRQGTGKGLEWVSAIGTSGDTYYPDSVKGRFTISRENAKNSLYLQMNSLRAGDTAVYYCARGGLQTTTWLFDYWGQGTLVTVSS VL: DIQMTQSPSSLSASVGDRVTITCRASQSISRYLNWYQQKPGKAPKLLIYAASSLQSGVPSRFSGSGAGTDFTLTISSLQPEDFAIYYCQQSYSNPPITFGQGTRLEIK", "EC50": 2.26},
      {"binder": "C1054 (antibody, V domains shown) VH: EVQLLESGGGLVQPGGSLRLSCVVSGFTFSSYAMNWVRQAPGKGLEWVSVIGGSGDGRYYADSVKGRFTISRDNSKNTLYLQMNSLRGDDTAVYYCARDVPVEQQLVPTFDYWGQGTLVTVSS VL: DIQMTQSPSSLSASVGDRVTITCRASQSISRYLNWYQQKPGKAPKLLIYAASSLQSGVPSRFSGSGSGTEFTLTISSLQPEDFATYYCQQSYSTLSITFGQGTRLEIK", "note": "[C1054, listing 1 of 2 here]", "EC50": 1.64},
      {"binder": "C1062 (antibody, V domains shown) VH: EVQLVESGGGLVQPGGSLRLSCAASGFTFSNYDMHWVRQTTGKGLEWVSAIGTAGDTYYPGSVKGRFTMSRENAKNSLYLQMNSLRAGDTAVYYCARGGLQTTTWLFDNWGQGTLVTVSS VL: DIQMTQSPSSLSASVGDRVTITCRASQTISRYLNWYQQKPGKAPKLLIYAASSLQSGVPSRFSGSGSGTDFTLTISSLQPEDFATYYCQQSYTMPPITFGQGTRLEIK", "EC50": 2.61},
      {"binder": "C1060 (antibody, V domains shown) VH: EVQLVESGGDLVQPGGSLRLSCAASEIIVSRNYMNWVRQAPGKGLEWVSIIYSGGSTFYGDSVKGRFTISRDSSKNTLYLQMHGLRVEDTAIYYCARSYGDYYIDYWGQGTLVTVSS VL: DIQMTQSPSSVSASVGDRVTITCRTSQSISTSLAWYQQKPGKAPKLLIYAASSLQRGVPSRFSGTGSGTDFTLTISSLQPEDFATYYCQQSSSSPPLFTFGPGTKVDIK", "EC50": 2.67},
      {"binder": "C1065 (antibody, V domains shown) VH: EVQLVESGGGLIQPGGSLRLSCAASGFTVSRNYMSWVRQAPGKGLEWVSVIYSGGSTFYADSVKGRFTISRDNSKNTLYLQMNSLRAEDTAVYYCARGLPTGEGWNYFDYWGQGTLVTVSS VL: QSALTQPASVSGSPGQSITISCTGTSSDIGGYHYVSWYQQHPGKAPKLMIYDVSNRPSGISNRFSGSKSGNTASLTISGLQAEDEADYYCSSYASSSVIFGGGTKLTVL", "EC50": 3.52},
      {"binder": "C1055 (antibody, V domains shown) VH: QVQLVESGGGVVQPGRSLRLSCAASGFTFSTYGMNWVRQAPGKGLEWVALILYDGSDKYYADSVKSRFTISRDNSRNTLYLQMTSLRAEDTAVYYCAKALSSTYYYDASGPDAFDIWGQGTMVTVSS VL: not shown", "note": "[C1055, listing 1 of 2 here]", "EC50": 2.71}
    ]},
    {"target": "T2, SARS-COV-2 RBD (SARS-COV-2, UniProt P0DTC2 319-539)", "T2 construct": "also called WT RBD", "experiment": "ELISA, RBD coated on plate", "units": {"EC50": "ng/mL"}, "values": [
      {"binder": "C1049 (antibody, V domains shown) VH: EVQLVQSGAEVKKPGESLKISCKSSGYSFISHWIGWVRQMPGKGLEWMGIIWPGDSDTRYSPSFQGQVTISVDKSITTVYLQWSSLKAADTAMYYCARRGSSWEVDYWGQGTLVTVSS VL: not shown", "EC50": 2.81},
      {"binder": "C1046 (antibody, V domains shown) VH: EVQLVQSGAEVKKPGESLKISCKGSGYSFTSYWIGWVRQMPGKGLEWMGIIYPGDSDTRYSPSFQGQVTISADKSISTAYLQWSSLKASDTAMYYCARMVTSGTYYYDNSGYSSSGPFDYWGQGTLVTVSS VL: DIQLTQSPSSLSASVGDRVTITCRASQGISSALAWYQQKPGKAPKLLIYDASSLESGVPSRFSGSGSGTDFTLTISSLQPEDFATYYCQQFNNFGPGTKVDIK", "EC50": 3.8},
      {"binder": "C1047 (antibody, V domains shown) VH: EVQLVQSGAEVKKPGESLKISCKGSGYSFISYWIVWVRQMPGKGLEWIGIIYPGDSDTIYSPSFQGQVTLSADKSISTAYLQWSSLKASDTAIYYCAKMVTSGTSYYETRGYASSGPFDNWGQGTLVTVSS VL: DIQLTQSPSSLSASVGDRVTITCRASQGISSALAWYQQKPGKAPKLLIYDASSLESGVPSRFSGSGSGTDFTLTISSLQPEDFATYYCQQSDNFGPGTKVDI", "EC50": 2.46},
      {"binder": "C1048 (antibody, V domains shown) VH: EVQLVQSGAEVKKPGESLKISCKVSGYSFISHWIGWVRQMPGKGLEWMGIIYPGDSDTRYSPSFQGQVTISADKSISTAYLQWSSLKASDTAMYYCARRGASWELDYWGQGTLVTV VL: QSVLTQPPSASGTPGQRVTISCSGSSSNIGSNPVSWYQQLPGPAPQLLIYGNDQRPSGVPDRFSGSKSGTSASLAISGLQSEDEADYYCAAWDDSLNGYVFGTGTKVTVL", "EC50": 2.41},
      {"binder": "C1053 (antibody, V domains shown) VH: EVQLLESGGGLVQPGGSLRLSCAASGFTFSSYAMNWVRQAPGKGLEWVSAISGSGGGTYYADSVKGRFTISRDNSKNTLYLQMDSLRAEDTAVYYCAKDVPIEQQLVPTFDYWGQGALVTVSS VL: DIQMTQSPSSLSASVGDRVTITCRASQSISRYLNWYQQKPGKAPKLLIYGASSLQSGVPSRFSGSGSGTDFTLTISSLQPEDFATYWCQQSYSTLSITFGQGTRLEIK", "note": "[C1053, listing 2 of 2 here]", "EC50": 4.13},
      {"binder": "C1054 (antibody, V domains shown) VH: EVQLLESGGGLVQPGGSLRLSCVVSGFTFSSYAMNWVRQAPGKGLEWVSVIGGSGDGRYYADSVKGRFTISRDNSKNTLYLQMNSLRGDDTAVYYCARDVPVEQQLVPTFDYWGQGTLVTVSS VL: DIQMTQSPSSLSASVGDRVTITCRASQSISRYLNWYQQKPGKAPKLLIYAASSLQSGVPSRFSGSGSGTEFTLTISSLQPEDFATYYCQQSYSTLSITFGQGTRLEIK", "note": "[C1054, listing 2 of 2 here]", "EC50": 1.84},
      {"binder": "C1055 (antibody, V domains shown) VH: QVQLVESGGGVVQPGRSLRLSCAASGFTFSTYGMNWVRQAPGKGLEWVALILYDGSDKYYADSVKSRFTISRDNSRNTLYLQMTSLRAEDTAVYYCAKALSSTYYYDASGPDAFDIWGQGTMVTVSS VL: not shown", "note": "[C1055, listing 2 of 2 here]", "EC50": 2.71},
      {"binder": "C1050 (antibody, V domains shown) VH: EVQLVESGGGLVQPGRSLRLSCAASGFTFDDYGMHWVRQAPGKGLEWVSGISWNGDSIGYADSVKGRFTISRDNAKTSLYLQMNRLRAEDTALYYCAKAASRSTRIGGAFDIWGQGTMVTVSS VL: QSALTQPASVSGSPGQSITISCTGTSSDVGGYNLVSWYQQHPGKAPKLMIYEGSKRPSGVSNRFSGSKSGNTASLTISGLQAEDEADYYCCSYAYSFTNVFGTGTKVTV", "EC50": 2.78},
      {"binder": "C1051 (antibody, V domains shown) VH: EVQLVESGGGLVQPGRSLRLSCVASGFTFDDYGLHWVRQAPGKGLEWVSGISWNSDSIGYADSVKGRFAISRDNARTSLYLQMNRLRAEDTALYYCAKAASRSTRIGGAFDIWGQGTMVTVSS VL: QSALTQPASVSGSPGQSITISCTGTSSDVGGYNLVSWYQQYPGKAPKLMIYEDSKRPSGVSHRFSGSKSGNTASLTISGLQAEDEADYYCCSYAFSFTNVFGTGTKVTV", "EC50": 1.4}
    ]}
  ]
}
